Reference: patent US20190127480A1 (Regeneron, published 2019)
Residue numbers refer to the chain shown, from its start.

B1: H1M3549N (antibody, mouse IgG1, V domains shown)
VH: EVQLVESGGGLVQPGRSLRLSCVASGFPFADYTMHWVRQAPGKGLEWVSDISWNSGSIGYADSVKGRFTISRDNAKNSLYLQMNSLRTEDTALYYCAKDMSGYAHYFYYGMDVWGQGTTVTVSS
VL: not shown
notes: H1M: mouse IgG1 Fc, human variable regions; divalent
B2: H1M3542N (antibody, mouse IgG1, V domains shown)
VH: B1 VH with I58K, L93F
VL: not shown
notes: as for B1
B3: H1M3613N (antibody, mouse IgG1, V domains shown)
VH: B1 VH with R19K, V23T, P28T, A40G, I58K, F107Y, G110A, M111L
VL: not shown
notes: as for B1
B4: H2M3541N (antibody, mouse IgG2, V domains shown)
VH: B1 VH with Q13R, V23A, P28T, A30D, S57T, T88P, F107Y
VL: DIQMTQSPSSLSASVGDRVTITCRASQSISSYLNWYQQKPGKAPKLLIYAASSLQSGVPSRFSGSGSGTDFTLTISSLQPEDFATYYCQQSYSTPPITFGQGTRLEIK
B5: H1M3613N (antibody, mouse IgG1, V domains shown)
VH: B1 VH with R19K, V23T, P28T, A40G, I58K, F107Y, G110A, M111L
VL: not shown
B6: H1M3549N (antibody, mouse IgG1, V domains shown)
VH: B1 VH
VL: not shown
B7: H1M3542N (antibody, mouse IgG1, V domains shown)
VH: B1 VH with I58K, L93F
VL: not shown
B8: H2M2690N (antibody, mouse IgG2, V domains shown)
VH: EVQLVESGGGLVQPGRSLRLSCAASGFTFDDYTMHWVRQAPGKGLEWVSGISWNSGSIGYADSVKGRFTISRDNAKKSLYLQMNSLRAEDTALYYCAKDNSGYGHYYYGMDVWGQGTTVTVAS
VL: EIVMTQSPATLSVSPGERATLSCRASQSVSSNLAWYQQKPGQAPRLLIYGASTRATGIPARFSGSGSGTEFTLTISSLQSEDFAVYYCQHYINWPLTFGGGTKVEIK
B9: H2M2705N (antibody, mouse IgG2, V domains shown)
VH: QVQLVESGGGVVQPGRSLRLACVASGFTFRSYGMHWVRQAPGKGLQWVAMIYYDGKNKYYADSVRGRFTISRDNSKNTLYLQMNNLRVEDTAMYFCARGPGYNWLDPWGQGTLVTVSS
VL: B8 VL with S28R, V29I, I58S, E70D, F83V, H90Q, Y91H, I92H
B10: H2M2706N (antibody, mouse IgG2, V domains shown)
VH: QVQLVESGGGVVQPGRSLRLSCAASGFTFRSYAMHWVRQAPGKGLEWVAMVYYDGNNQYYADSVRGRFTISRDNSKNTLYLQMNSLRADDTAVYFCARGPGYNWLDPWGQGTLVTVSS
VL: B8 VL with S31R, E70D, H90Q, I92N, E105V
B11: H2M2777N (antibody, mouse IgG2, V domains shown)
VH: B10 VH with A23I, A33G, V51I, Q58K
VL: B8 VL with H90Q, I92N, W94R
B12: H2M2691N (antibody, mouse IgG2, V domains shown)
VH: B8 VH
VL: B8 VL
B13: H2M2779N (antibody, V domains shown)
VH: B8 VH with R16G, S25T, Y32F, A61V, K77N, H105Y, A122S
VL: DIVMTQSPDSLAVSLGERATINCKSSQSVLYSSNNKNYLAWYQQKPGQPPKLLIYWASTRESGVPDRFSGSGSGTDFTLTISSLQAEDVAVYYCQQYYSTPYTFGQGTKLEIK
B14: H2M2778N (antibody, mouse IgG2, V domains shown)
VH: EVQLVESGGGLVQPGRSLRLSCAASGFTFDDYSMHWVRQAPGKGLEWVSGISWNSRSIDYADSVKGRFTISRDNAKNSLYLQMNSLRAEDTALYYCVKDNSGYGRYYYYGMDVWGQGTTVSVSS
VL: B8 VL with E1K, S31G, G57S, Y87F, I92Y, K107R
B15: H2M2711N (antibody, V domains shown)
VH: B10 VH with Y32F, A33G, K43R, V51I, Y53F, N56K, Q58K, Q82E, N84S, D89E
VL: B8 VL with S31R, I58V, Y86F, Y87H, H90Q, I92N, W94R, K103E
B16: H2M2862N (antibody, mouse IgG2, V domains shown)
VH: B10 VH with A33G, V51I, Q58K, Y59K, A88V, D89E
VL: B8 VL with S31R, G57D, T72I, T74N, V85L, H90Q, I92S, K103E
B17: H2M2707N (antibody, mouse IgG2, V domains shown)
VH: B10 VH with A23I, A33G, V51I, Q58K
VL: B8 VL with H90Q, I92N, W94R
B18: H2M2774N (antibody, mouse IgG2, V domains shown)
VH: B9 VH with A21S, N85S, V88A
VL: B8 VL with S28R, V29I, I58S, F83V, H90Q, Y91H, I92N
B19: H2M2710N (antibody, V domains shown)
VH: B10 VH with Y32F, A33G, K43R, V51I, Y53F, N56K, Q58K, Q82E, N84S, D89E
VL: B8 VL with S31R, I58V, Y86F, Y87H, H90Q, I92N, W94R, K103E
B20: H1M2712N (antibody, mouse IgG1, V domains shown)
VH: B8 VH with R16G, S25T, Y32F, A61V, K77N, H105Y, A122S
VL: B8 VL with Q27H, S31R, L33S, V85I, H90Q, I92N
B21: H1M2692N (antibody, mouse IgG1, V domains shown)
VH: B14 VH with R16G, T28S, S33T, A40P, R56G, D59G, E89G, V97A, R105Y, S121T
VL: B8 VL with H90Q, I92Y
B22: H2M2708N (antibody, mouse IgG2, V domains shown)
VH: B10 VH with Y32F, A33G, K43R, V51I, Y53F, N56K, Q58K, Q82E, N84S, D89E
VL: B8 VL with A19V, V29I, S31R, I58V, Y86F, Y87H, H90Q, I92N, W94R, K103E
B23: H2M2775N (antibody, mouse IgG2, V domains shown)
VH: B10 VH with Y32F, A33G, K43R, V51I, Y53F, N56K, Q58K, Q82E, N84S, D89E
VL: EIVMTQSPATLSVSPGERVILSCRASQSISRNLAWYQQKPGQAPRLLIYGATTRATGVPARFSGSGSGTEFTLTISSLQSEDFAVFYCQQYNNRPLTFGGGTEVEIK
B24: H2M2885N (antibody, mouse IgG2, V domains shown)
VH: B10 VH with Y32F, A33G, K43R, V51I, Y53F, N56K, Q58K, Q82E, N84S, D89E
VL: B23 VL
B25: H2M2886N (antibody, mouse IgG2, V domains shown)
VH: B10 VH with Y32F, A33G, K43R, V51I, Y53F, N56K, Q58K, Q82E, N84S, D89E
VL: B23 VL
B26: H2M3548N (antibody, mouse IgG2, V domains shown)
VH: EVQLVESGGGLVQPGRSLRLSCAASGFKFADYAMHWVRQAPGKGLEWVSEISWNSGSIGYVDSVKGRFTISRDNAKNSLYLQMNSLRAEDTALYYCVKDKSGYGHYYIGMDVWGQGTTVIVSS
VL: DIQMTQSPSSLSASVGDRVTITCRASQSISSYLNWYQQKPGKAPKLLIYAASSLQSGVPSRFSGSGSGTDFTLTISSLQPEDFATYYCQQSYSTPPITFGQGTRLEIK
B27: H1M3544N (antibody, mouse IgG1, V domains shown)
VH: EVQLVESGGGLVQPGRSLRLSCAASGFTFDDYTMHWVRQVPGKGLEWVSGISWNSGSLAYADSVKGRFTISRDNAKNSLYLQMNSLHPEDTALYYCVKDGSGYGHYSYYGLDVWGQGTTVTVSS
VL: not shown
B28: H2M3540N (antibody, mouse IgG2, V domains shown)
VH: QVHLEESGGGVVQPGRSLRLSCSASGFTFSSYAMHWVRQAPGKGLEWVAVIWYDGTNKYYLDSVKGRFTISRDNSKNTLFLQMNSLRAEDTAVYYCARDRGSIITHWGQGTLVTVSS
VL: DIQMTQSPSSLSASIGDRVTITCRASQNISSYLNWYQQKPGKAPKLLIYAASSLQSGVPSRFSGSGSGTDFTLTISSLQPEDFATYYCQQTYSTPPITFGQGTRLEIK
B29: H2M3543N (antibody, mouse IgG2, V domains shown)
VH: B1 VH with V23A, P28T, A30D, I70V, T88G, F107G
VL: B28 VL with I15V, N28S, S30R, S31N, A43V, T91S, T94N
B30: H2M2689N (antibody, mouse IgG2, V domains shown)
VH: QVQLVESGGGVVQPGRSLRLSCAASGFTFSRKGMHWVRQAPVKGLEWVAVISYDGSNKYYADSVKGRFTISRDNSKNTLYLQMNSLTAEDTAVYYCAKEGGHDYGGTFDYWGQGTLVTVSS
VL: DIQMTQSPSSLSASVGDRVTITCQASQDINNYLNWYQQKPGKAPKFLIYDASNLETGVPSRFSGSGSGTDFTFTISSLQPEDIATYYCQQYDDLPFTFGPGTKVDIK

Target: T1, Soluble heterodimeric CD3 protein (hCD3-epsilon/hCD3-delta) with either a human Fc tag (hFcΔAdp/hFc) or a … (human, UniProt P07766 23-126; P04234 22-105)
T1 construct: also called hCD3ε/δ; not shown: Fc tag: human (hFcΔAdp/hFc)
T1 sequence (P07766 23-126 limits assumed, stated change not applied, chain 1 of 2): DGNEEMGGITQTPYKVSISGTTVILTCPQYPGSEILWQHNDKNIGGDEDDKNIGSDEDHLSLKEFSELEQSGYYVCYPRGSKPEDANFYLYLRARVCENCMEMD
T1 sequence (P04234 22-105 limits assumed, stated change not applied, chain 2 of 2): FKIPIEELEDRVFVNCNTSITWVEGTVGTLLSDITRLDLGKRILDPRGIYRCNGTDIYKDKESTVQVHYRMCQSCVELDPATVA
Experiment: SPR Biacore 25C antigen-capture
Procedure, shortened: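 Rate constants fitted to a 1:1 model, giving KD as kd/ka and dissociative half-life as ln2/(60·kd) minutes. Antibodies flowed over CD3ε/δ heterodimer captured on anti-human or anti-mouse Fc surfaces, run on a Biacore T200 at 25 °C.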

Kd | T½ | koff | kon | Binder
1.03 nM | 40 min | 0.000289 s⁻¹ | 281000 M⁻¹ s⁻¹ | B1
0.457 nM | 58 min | 0.0002 s⁻¹ | 437000 M⁻¹ s⁻¹ | B2
0.435 nM | 120 min | 9.6e-05 s⁻¹ | 220000 M⁻¹ s⁻¹ | B3

Target: T2, human CD3 expressed on cells (Jurkat cells, a CD3+ human T-cell line; human PBMC T cells) (human, UniProt P07766 23-207; P04234 22-171)
T2 construct: Cell-surface CD3 within the T cell receptor complex
T2 sequence (P07766 23-207 limits assumed, chain 1 of 2): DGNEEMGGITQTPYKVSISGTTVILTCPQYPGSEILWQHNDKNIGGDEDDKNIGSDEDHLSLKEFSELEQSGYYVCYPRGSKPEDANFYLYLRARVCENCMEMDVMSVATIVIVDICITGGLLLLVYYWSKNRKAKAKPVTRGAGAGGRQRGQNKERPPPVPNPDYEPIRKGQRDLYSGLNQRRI
T2 sequence (P04234 22-171 limits assumed, chain 2 of 2): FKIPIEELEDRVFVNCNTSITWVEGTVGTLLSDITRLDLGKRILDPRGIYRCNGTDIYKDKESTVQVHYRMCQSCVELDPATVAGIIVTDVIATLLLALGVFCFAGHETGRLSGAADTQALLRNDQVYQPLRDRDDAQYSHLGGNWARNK
Experiment: FACS on Jurkat cells
Description: FACS data was acquired using the following protocol: Cells at 2×10⁵ per well were incubated with serially diluted antibodies for 30 min on ice. Post incubation, cells were washed and secondary antibody was added and incubated for an additional 30 minutes. After incubation, cells were washed, re-suspended in cold PBS containing 1% BSA and analyzed by flow cytometry with viable Jurkat cells gated by side and forward scatters. The EC₅₀s for cell binding titration were determined using Prism software with values calculated using a 4-parameter non-linear regression analysis.

EC50 | Binder
2.3 nM | B1
2.01 nM | B2
10.3 nM | B3

Target: human CD3 expressed on cells (Jurkat cells; human T-cells of PBMC) (human, UniProt P09693 23-182; P20963 22-164)
Sequence (chain, as listed by the source, chain 1 of 4): as the sequence (P07766 23-207 limits assumed, chain 1 of 2) above
Sequence (chain, as listed by the source, chain 2 of 4): as the sequence (P04234 22-171 limits assumed, chain 2 of 2) above
Sequence (P09693 23-182, chain 3 of 4): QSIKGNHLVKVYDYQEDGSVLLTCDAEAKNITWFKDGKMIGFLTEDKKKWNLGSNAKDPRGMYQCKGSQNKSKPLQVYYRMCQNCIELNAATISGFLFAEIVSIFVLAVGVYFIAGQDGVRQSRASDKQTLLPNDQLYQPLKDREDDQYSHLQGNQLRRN
Sequence (P20963 22-164, chain 4 of 4): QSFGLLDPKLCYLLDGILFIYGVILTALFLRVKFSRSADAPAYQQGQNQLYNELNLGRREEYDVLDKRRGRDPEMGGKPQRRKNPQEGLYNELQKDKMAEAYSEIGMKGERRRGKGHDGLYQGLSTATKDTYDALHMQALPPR
Experiment: cell-based or functional assay

Binder | U937 Cytotoxicity Human T-cells
B4 | 53.9 pM
B5 | 866 pM
B6 | 107 pM
B7 | 29.2 pM
B8 | 27.9 pM
B9 | 1.73 pM
B10 | 7.91 pM
B11 | 4.86 pM
B12 | 23.4 pM
B13 | 675 pM
B14 | 0 pM
B15 | 3.66 pM
B16 | 7.66 pM
B17 | 7.21 pM
B18 | 2.46 pM
B19 | 3.97 pM
B20 | 314 pM
B21 | 359 pM
B22 | 3.27 pM
B23 | 3.38 pM
B24 | 3.71 pM
B25 | 8.06 pM
B26 | 5.5 pM
B27 | 172 pM
B28 | 12.5 pM
B29 | 13.1 pM
B30 | 0 pM
